Data: patent US20260242478A1 (published 2026)

B1: Phage-739 (peptide)
peptide: YCDGHSPDYIWKCL
notes: tested as crude clonal phage supernatant
B2: Phage-754 (peptide)
peptide: YCEGHSEEYMSKCL
notes: Tested as clonal phage supernatant
B3: Phage-735 (peptide)
peptide: YCEGHLPIYLSKCL
B4: Phage-749 (peptide)
peptide: YCDGHLKEYQEKCL
notes: as for B2
B5: Phage-759 (peptide)
peptide: YCDGHAEEYMSKCL
notes: as for B2
B6: Phage-728 (peptide)
peptide: YCDGHLIEYMYKCL
B7: Phage-760 (peptide)
peptide: YCDGHVEEYLYKCL
notes: as for B2
B8: Phage-742 (peptide)
peptide: YCDGHMPEYMEKCL
notes: as for B1
B9: Phage-758 (peptide)
peptide: YCDGHEPQYLEKCL
notes: as for B2
B10: Phage-729 (peptide)
peptide: YCDGHSAEYMQKCL
B11: Phage-730 (peptide)
peptide: YCDGHLVEYMSKCL
B12: Phage-741 (peptide)
peptide: YCMGHQPEYMQKCL
notes: as for B1
B13: Phage-744 (peptide)
peptide: YCDGHSPEYMTKCL
notes: as for B1
B14: Phage-737 (peptide)
peptide: YCSGHAPEYMAKCL
notes: as for B1
B15: Phage-751 (peptide)
peptide: YCEGHLAVYMQKCL
notes: as for B2
B16: Phage-757 (peptide)
peptide: YCDGHSKEYMHKCL
notes: as for B2
B17: Phage-755 (peptide)
peptide: YCDGHSQEYMWKCL
notes: as for B2
B18: Phage-725 (peptide)
peptide: YCAGHSVEYMAKCL
B19: Phage-743 (peptide)
peptide: YCDGHSAEYLAKCL
notes: as for B1
B20: Phage-753 (peptide)
peptide: YCDGHLDIYLAKCL
notes: as for B2
B21: Phage-723 (peptide)
peptide: YCDGHLEQYRAKCL
B22: Phage-736 (peptide)
peptide: YCDGHASEYMWKCL
notes: as for B1

Legend:
[1] = biological target: T1, Anti-CD28 Fab (SEQ ID NOs: 696, 697); experiment: phage ELISA; biotinylated anti-CD28 Fab on neutravidin plate, clonal phage supernatant, anti-M13 HRP detection;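 further: crude supernatants of single phage clones picked after panning were screened for binding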
T1 construct: In the phage ELISA the Fab was biotinylated and captured on neutravidin coated plates
T1 sequence (VH, as listed by the source, chain 1 of 2): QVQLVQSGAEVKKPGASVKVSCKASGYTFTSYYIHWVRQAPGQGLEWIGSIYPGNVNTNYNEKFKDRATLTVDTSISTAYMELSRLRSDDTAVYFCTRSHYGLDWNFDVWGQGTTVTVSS
T1 sequence (VL, as listed by the source, chain 2 of 2): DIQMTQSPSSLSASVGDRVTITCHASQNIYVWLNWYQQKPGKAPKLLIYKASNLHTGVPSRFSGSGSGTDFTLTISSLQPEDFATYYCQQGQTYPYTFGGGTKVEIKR

[2] = biological target: T1, Anti-CD28 Fab (SEQ ID NOs: 696, 697); experiment: phage ELISA; Fab-coated wells pre-incubated with CD28 antigen as competitor, anti-M13 HRP detection;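 further: crude clonal phage supernatants screened by ELISA, comparing wells pre-treated with CD28 antigen in blocker against wells given blocker only, bound phage read via HRP-linked anti-M13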
Description: (§1) After panning, phage infected bacteria were plated out and colonies picked into 96 well blocks. Clonal phage was then amplified and separated from bacterial cells via centrifugation.
(§2) Clonal phage were harvested as crude supematants and screened via standard ELISAs. […] Prior to the addition of clonal phage, wells were incubated with blocking buffer and CD28 antigen or blocking buffer alone. Without washing or aspirating, clonal phage supematants were then added to the wells and incubated for a short time. Wells were then washed followed by detection of bound phage using a horse radish conjugated anti-M13 antibody. Clonal phage of interest were then sent for sequence analysis.

[3] = biological target: T2, Anti-CD28 Fab (SEQ ID NOs: 696, 697); experiment: phage binding ELISA on anti-CD28 Fab plate; competitor: CD28 antigen pre-incubated in the wells
T2 construct: The Fab was biotinylated and captured on neutravidin coated plates in the phage ELISA
T2 sequence (VH, as listed by the source, chain 1 of 2): as the sequence (VH, as listed by the source, chain 1 of 2) above
T2 sequence (VL, as listed by the source, chain 2 of 2): as the sequence (VL, as listed by the source, chain 2 of 2) above
Description: as §1, §2

[4] = biological target: T2, Anti-CD28 Fab (SEQ ID NOs: 696, 697); experiment: phage binding ELISA; biotinylated anti-CD28 Fab on neutravidin plate, bound phage detected with anti-M13 HRP;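 further: crude supernatants of clonal phage screened, wells pretreated with blocking buffer with or without CD28 antigen before brief phage incubation, washed, then bound phage detected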
Description: as §1, §2

[5] = biological target: Anti-CD28 Fab (SEQ ID NOs: 696, 697); experiment: phage binding ELISA on anti-CD28 Fab; wells first incubated with CD28 antigen as competitor
Target sequence in this assay (VH, as listed by the source, chain 1 of 2): as the sequence (VH, as listed by the source, chain 1 of 2) above
Target sequence in this assay (VL, as listed by the source, chain 2 of 2): as the sequence (VL, as listed by the source, chain 2 of 2) above
Description: as §1, §2

[6] = biological target: Anti-CD28 Fab (SEQ ID NOs: 696, 697); experiment: phage binding ELISA; biotinylated anti-CD28 Fab on neutravidin plate, clonal phage supernatant, anti-M13 HRP detection
Target sequence in this assay (VH, as listed by the source, chain 1 of 2): as the sequence (VH, as listed by the source, chain 1 of 2) above
Target sequence in this assay (VL, as listed by the source, chain 2 of 2): as the sequence (VL, as listed by the source, chain 2 of 2) above

| Binder | Anti-CD28 Fab signal (phage binding ELISA) [1] | Anti-CD28 Fab signal in the presence of CD28 (phage binding ELISA) [2] | Anti-CD28 Fab signal in the presence of CD28 [3] | Anti-CD28 Fab (SEQ ID NOs: 696, 697) signal [4] | also measured |
| --- | --- | --- | --- | --- | --- |
| B1 | 1.93 | 0.1 | – | – | – |
| B2 | – | – | 0.07 | 1.91 | – |
| B3 | – | – | – | – | Anti-CD28 Fab signal in the presence of CD28 [5]: 0.08; Anti-CD28 Fab signal (phage binding ELISA) [6]: 1.94 |
| B4 | – | – | 0.09 | 1.91 | – |
| B5 | – | – | 0.09 | 1.9 | – |
| B6 | – | – | – | – | Anti-CD28 Fab signal in the presence of CD28 [5]: 0.09; Anti-CD28 Fab signal (phage binding ELISA) [6]: 1.95 |
| B7 | – | – | 0.06 | 1.9 | – |
| B8 | 1.93 | 0.09 | – | – | – |
| B9 | – | – | 0.08 | 1.9 | – |
| B10 | – | – | – | – | Anti-CD28 Fab signal in the presence of CD28 [5]: 0.07; Anti-CD28 Fab signal (phage binding ELISA) [6]: 1.95 |
| B11 | – | – | – | – | Anti-CD28 Fab signal in the presence of CD28 [5]: 0.08; Anti-CD28 Fab signal (phage binding ELISA) [6]: 1.95 |
| B12 | 1.93 | 0.08 | – | – | – |
| B13 | 1.93 | 0.07 | – | – | – |
| B14 | 1.94 | 0.06 | – | – | – |
| B15 | – | – | 0.1 | 1.91 | – |
| B16 | – | – | 0.07 | 1.9 | – |
| B17 | – | – | 0.09 | 1.9 | – |
| B18 | – | – | – | – | Anti-CD28 Fab signal in the presence of CD28 [5]: 0.08; Anti-CD28 Fab signal (phage binding ELISA) [6]: 1.96 |
| B19 | 1.93 | 0.08 | – | – | – |
| B20 | – | – | 0.08 | 1.91 | – |
| B21 | – | – | – | – | Anti-CD28 Fab signal in the presence of CD28 [5]: 0.08; Anti-CD28 Fab signal (phage binding ELISA) [6]: 1.96 |
| B22 | 1.94 | 0.06 | – | – | – |
